# In paper PMC9960064:
# Experiments:
# Experiment in all cases: ITC
# [1] = molecular target: untagged β′-COP residues 1–604 (yeast (S. cerevisiae)) (UniProt P41811)
# [2] = molecular target: C-terminal β′-COP propeller (residues 300–604), untagged (yeast (S. cerevisiae)) (UniProt P41811)
# [3] = molecular target: β′-COP R13A/K15A/R59A (RKR mutant), residues 1–604, untagged (yeast (S. cerevisiae)) (UniProt P41811)
# Chain of untagged β′-COP residues 1–604 (yeast (S. cerevisiae)) (P41811 1-604): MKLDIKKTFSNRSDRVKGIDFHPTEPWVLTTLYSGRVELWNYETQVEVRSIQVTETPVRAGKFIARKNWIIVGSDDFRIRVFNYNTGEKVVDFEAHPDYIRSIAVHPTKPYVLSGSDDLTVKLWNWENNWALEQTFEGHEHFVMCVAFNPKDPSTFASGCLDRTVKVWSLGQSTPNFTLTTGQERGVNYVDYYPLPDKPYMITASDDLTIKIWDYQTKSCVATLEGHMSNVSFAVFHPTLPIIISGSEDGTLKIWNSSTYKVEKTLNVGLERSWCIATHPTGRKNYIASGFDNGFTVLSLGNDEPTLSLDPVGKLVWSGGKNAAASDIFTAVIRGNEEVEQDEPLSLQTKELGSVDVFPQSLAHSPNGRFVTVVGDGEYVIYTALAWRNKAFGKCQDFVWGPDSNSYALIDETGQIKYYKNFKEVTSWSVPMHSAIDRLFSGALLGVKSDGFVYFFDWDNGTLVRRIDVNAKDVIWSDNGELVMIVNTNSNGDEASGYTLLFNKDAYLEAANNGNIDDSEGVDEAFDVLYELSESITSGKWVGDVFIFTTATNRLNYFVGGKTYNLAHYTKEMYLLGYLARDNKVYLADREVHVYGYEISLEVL
# Chain of untagged Glo3 BoCCS fragment (residues 230–300) (P38682 230-300): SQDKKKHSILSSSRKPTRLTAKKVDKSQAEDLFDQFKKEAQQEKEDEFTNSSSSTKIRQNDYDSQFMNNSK
# Chain of C-terminal β′-COP propeller (residues 300–604), untagged (yeast (S. cerevisiae)) (P41811 300-604): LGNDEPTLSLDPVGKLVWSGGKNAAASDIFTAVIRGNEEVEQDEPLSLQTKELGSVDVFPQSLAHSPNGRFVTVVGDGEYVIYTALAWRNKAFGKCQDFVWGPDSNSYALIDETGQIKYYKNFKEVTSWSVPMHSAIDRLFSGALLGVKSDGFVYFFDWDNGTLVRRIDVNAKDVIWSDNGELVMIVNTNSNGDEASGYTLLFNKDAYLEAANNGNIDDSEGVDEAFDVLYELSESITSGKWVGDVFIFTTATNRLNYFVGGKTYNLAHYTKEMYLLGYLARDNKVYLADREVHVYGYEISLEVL
# Chain of untagged Glo3 residues 230–290 (P38682 230-290): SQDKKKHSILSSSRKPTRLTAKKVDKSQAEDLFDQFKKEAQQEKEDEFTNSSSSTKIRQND
substance,measurement,setting,value
"Glo3 fragment lacking N-terminal residues 230–240, untagged (domain or fragment)",Kd,[1],> 300 µM
"full BoCCS Glo3 fragment (residues 208–383), untagged (from UniProt P38682 208-383) (domain or fragment)",stoichiometry N,[1],1
untagged Glo3 BoCCS fragment (residues 230–300) (from UniProt P38682 230-300) (domain or fragment),Kd,[2],< 300 µM
untagged Glo3 residues 230–290 (from UniProt P38682 230-290) (domain or fragment),fold weaker binding than wild-type β′-COP,[3],16 fold
